Assay results as given in IntAct's records for PubMed 15064722.

B1: WW domain-binding protein 1 (Homo sapiens), Q96G27 (parent)
chain: MARASSGNGSEEAWGALRAPQQQLRELCPGVNNQPYLCESGHCCGETGCCTYYYELWWFWLLWTVLILFSCCCAFRHRRAKLRLQQQQRQREINLLAYHGACHGAGPFPTGSLLDLRFLSTFKPPAYEDVVHRPGTPPPPYTVAPGRPLTASSEQTCCSSSSSCPAHFEGTNVEGVSSHQSAPPHQEGEPGAGVTPASTPPSCRYRRLTGDSGIELCPCPASGEGEPVKEVRVSATLPDLEDYSPCALPPESVPQIFPMGLSSSEGDIP
partner: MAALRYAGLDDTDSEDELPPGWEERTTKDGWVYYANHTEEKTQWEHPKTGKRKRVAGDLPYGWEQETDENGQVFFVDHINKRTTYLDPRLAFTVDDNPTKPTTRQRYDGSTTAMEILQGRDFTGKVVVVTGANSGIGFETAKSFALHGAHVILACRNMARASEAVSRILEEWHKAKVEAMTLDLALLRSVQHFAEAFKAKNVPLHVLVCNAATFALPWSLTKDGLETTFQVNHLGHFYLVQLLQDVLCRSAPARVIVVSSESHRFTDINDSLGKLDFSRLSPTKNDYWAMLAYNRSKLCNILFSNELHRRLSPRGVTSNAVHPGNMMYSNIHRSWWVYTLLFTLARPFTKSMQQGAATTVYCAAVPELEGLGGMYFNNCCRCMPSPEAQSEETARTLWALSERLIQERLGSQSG
B2: Lipopolysaccharide-induced tumor necrosis factor-alpha factor (Homo sapiens), Q99732 (parent)
chain: MSVPGPYQAATGPSSAPSAPPSYEETVAVNSYYPTPPAPMPGPTTGLVTGPDGKGMNPPSYYTQPAPIPNNNPITVQTVYVQHPITFLDRPIQMCCPSCNKMIVSQLSYNAGALTWLSCGSLCLLGCIAGCCFIPFCVDALQDVDHYCPNCRALLGTYKRL
partner: B1 partner
B3: WW domain-containing oxidoreductase (Homo sapiens), Q9NZC7 (parent)
chain: B1 partner

Variants of: B1
Settings: with wwox_human WWOX

Row | Variant | effect of a mutation on the interaction
1 | Y141A | disrupting interaction

Variants of: B2
Settings: with wwox_human WWOX

Row | Variant | effect of a mutation on the interaction
2 | Y23A | decreasing interaction
3 | Y23A;Y61A | disrupting interaction

Variants of: B3
Settings: with litaf_human LITAF

Row | Variant | effect of a mutation on the interaction
4 | W44F;P47A | disrupting interaction
5 | Y85A;P88A | decreasing interaction
